Laboratory results reported in patent publication EP4610277A1 (Daiichi Sankyo Company, Limited, dated 2025).

T1: NKG2D (Fc, R&D system 1299-NK-050) (UniProt P26718 78-216)
T1 construct: Bought Fc-tagged protein
T1 sequence (looked up): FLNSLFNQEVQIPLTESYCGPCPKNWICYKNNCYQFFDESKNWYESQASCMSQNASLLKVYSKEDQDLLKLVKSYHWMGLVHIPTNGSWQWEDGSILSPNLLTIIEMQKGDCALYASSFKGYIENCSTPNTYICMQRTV

T2: NKp30 (Fc, R&D system 1849-NK-025) (UniProt O14931 19-138, limits assumed)
T2 construct: Bought Fc-tagged protein
T2 sequence (looked up): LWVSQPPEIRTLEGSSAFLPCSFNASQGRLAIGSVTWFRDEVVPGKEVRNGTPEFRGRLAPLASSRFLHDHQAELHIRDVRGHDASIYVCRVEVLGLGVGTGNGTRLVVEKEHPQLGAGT

T3: NKp44 (Fc, R&D system 2249-NK-050) (UniProt O95944 22-190, limits assumed)
T3 construct: Bought Fc-tagged protein
T3 sequence (looked up): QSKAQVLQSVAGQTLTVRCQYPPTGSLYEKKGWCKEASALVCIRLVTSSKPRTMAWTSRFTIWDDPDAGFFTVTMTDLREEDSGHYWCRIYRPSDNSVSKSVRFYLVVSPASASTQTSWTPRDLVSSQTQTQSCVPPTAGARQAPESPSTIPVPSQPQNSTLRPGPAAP

T4: CD32a (Fc, R&D system 1330-CD-050) (UniProt P12318 36-218)
T4 sequence (looked up): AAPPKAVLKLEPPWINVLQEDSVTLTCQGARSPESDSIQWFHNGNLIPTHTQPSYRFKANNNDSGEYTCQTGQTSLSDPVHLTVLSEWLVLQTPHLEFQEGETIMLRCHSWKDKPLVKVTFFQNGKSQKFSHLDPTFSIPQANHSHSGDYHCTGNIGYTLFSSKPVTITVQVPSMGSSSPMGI

T5: CD32b/c (Fc, R&D system 1875-CD-050) (UniProt P31994 46-217)
T5 sequence (looked up): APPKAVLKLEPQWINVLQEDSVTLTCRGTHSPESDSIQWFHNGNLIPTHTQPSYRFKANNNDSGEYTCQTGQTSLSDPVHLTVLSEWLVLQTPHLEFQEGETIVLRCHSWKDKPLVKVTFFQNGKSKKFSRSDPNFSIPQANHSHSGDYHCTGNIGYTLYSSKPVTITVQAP

T6: TIGIT (Fc, R&D system 9464-TG-050) (UniProt Q495A1 22-141)
T6 construct: Bought Fc-tagged protein
T6 sequence (looked up): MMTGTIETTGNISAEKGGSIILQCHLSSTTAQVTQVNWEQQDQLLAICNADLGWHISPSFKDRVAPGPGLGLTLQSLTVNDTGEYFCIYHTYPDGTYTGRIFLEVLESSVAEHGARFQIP


Tests used:
[1] = target: T7, recombinant KIR2DS1 (extracellular domain-Fc-Avi, in-house) (human); test: flow cytometry, KIR-Fc on scFv-K562 cells
T7 construct: In-house; IL-2 signal peptide left out; also called soluble KIR2DS1
T7 sequence (chain, as listed by the source): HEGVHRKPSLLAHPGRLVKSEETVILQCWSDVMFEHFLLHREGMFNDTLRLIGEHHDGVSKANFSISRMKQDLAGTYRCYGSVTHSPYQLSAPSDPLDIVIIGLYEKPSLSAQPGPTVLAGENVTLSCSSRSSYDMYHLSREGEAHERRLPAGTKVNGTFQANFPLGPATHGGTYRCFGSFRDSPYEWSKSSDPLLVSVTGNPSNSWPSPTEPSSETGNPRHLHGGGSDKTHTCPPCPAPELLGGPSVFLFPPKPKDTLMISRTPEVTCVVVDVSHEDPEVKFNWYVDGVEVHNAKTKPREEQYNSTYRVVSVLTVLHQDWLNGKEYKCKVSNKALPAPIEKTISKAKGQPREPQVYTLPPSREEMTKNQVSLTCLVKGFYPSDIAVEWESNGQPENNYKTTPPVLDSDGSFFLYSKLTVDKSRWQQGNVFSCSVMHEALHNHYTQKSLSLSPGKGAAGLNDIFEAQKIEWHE

[2] = target: T8, recombinant KIR2DS2 (extracellular domain-Fc-Avi, in-house) (human); test: flow cytometry, KIR-Fc on scFv-K562 cells
T8 construct: In-house; IL-2 signal peptide left out; also called soluble KIR2DS2

[3] = target: T9, recombinant KIR2DS4 (extracellular domain-Fc-Avi, in-house) (human); test: flow cytometry, KIR-Fc on scFv-K562 cells
T9 construct: In-house; IL-2 signal peptide left out; also called soluble KIR2DS4
T9 sequence (chain, as listed by the source): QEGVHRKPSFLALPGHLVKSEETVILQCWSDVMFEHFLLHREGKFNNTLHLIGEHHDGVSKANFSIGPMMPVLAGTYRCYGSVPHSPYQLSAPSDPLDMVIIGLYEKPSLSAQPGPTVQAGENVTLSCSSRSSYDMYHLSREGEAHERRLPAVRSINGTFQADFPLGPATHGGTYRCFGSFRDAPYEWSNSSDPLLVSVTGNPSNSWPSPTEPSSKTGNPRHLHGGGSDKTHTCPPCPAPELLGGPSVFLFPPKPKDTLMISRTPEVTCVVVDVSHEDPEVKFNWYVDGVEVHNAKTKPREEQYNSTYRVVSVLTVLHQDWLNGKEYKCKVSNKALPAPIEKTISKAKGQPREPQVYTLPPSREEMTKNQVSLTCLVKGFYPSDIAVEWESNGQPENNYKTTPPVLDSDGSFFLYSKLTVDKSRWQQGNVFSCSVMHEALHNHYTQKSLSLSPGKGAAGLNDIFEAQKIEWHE

[4] = target: T10, recombinant human KIR3DS1/CD158e2 Fc chimera protein (4136-KR-050, R&D Systems) (human, UniProt Q14943 22-340, limits assumed); test: flow cytometry, tagged protein on scFv-K562 cells
T10 construct: Bought Fc chimera; also called soluble KIR3DS1; recombinant KIR3DS1

[5] = target: T11, KIR2DL1 (Fc, R&D system 1844-KR-050) (UniProt P43626 22-245); test: flow cytometry, tagged protein on scFv-K562 cells
T11 construct: Bought Fc-tagged protein
T11 sequence (P43626 22-245 limits assumed): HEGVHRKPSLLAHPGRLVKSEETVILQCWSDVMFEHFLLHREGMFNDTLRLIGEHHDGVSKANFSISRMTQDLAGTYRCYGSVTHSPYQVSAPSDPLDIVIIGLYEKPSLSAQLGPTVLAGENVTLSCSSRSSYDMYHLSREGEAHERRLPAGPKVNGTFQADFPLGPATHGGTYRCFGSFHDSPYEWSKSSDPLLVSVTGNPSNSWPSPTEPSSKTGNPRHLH

[6] = target: T12, KIR2DL4 (Fc, R&D system 2238-KR-050) (UniProt Q99706 24-242, limits assumed); test: flow cytometry, tagged protein on scFv-K562 cells
T12 construct: Bought Fc-tagged protein
T12 sequence (Q99706 24-242 limits assumed): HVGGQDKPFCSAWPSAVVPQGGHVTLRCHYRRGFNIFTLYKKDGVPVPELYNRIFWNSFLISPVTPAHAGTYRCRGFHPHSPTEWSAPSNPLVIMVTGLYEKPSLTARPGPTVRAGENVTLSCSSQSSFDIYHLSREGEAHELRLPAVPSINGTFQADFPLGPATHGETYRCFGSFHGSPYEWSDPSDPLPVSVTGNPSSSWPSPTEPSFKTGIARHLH

[7] = target: T13, KIR2DL5 (Fc, R&D system 6634-KR-050) (UniProt Q8N109 22-238, limits assumed); test: flow cytometry, tagged protein on scFv-K562 cells
T13 construct: Bought Fc-tagged protein
T13 sequence (Q8N109 22-238 limits assumed): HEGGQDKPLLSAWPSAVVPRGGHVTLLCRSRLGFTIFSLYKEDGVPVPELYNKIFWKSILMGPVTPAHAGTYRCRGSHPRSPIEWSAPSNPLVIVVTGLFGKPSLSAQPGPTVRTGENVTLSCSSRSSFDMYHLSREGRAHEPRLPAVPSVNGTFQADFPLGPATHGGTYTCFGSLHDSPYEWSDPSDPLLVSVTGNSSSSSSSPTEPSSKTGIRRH

[8] = target: KIR2DS3 (Fc, prepared in-house) (UniProt Q14952 22-245, limits assumed); test: flow cytometry, tagged protein on scFv-K562 cells
KIR2DS3 (Fc, prepared in-house), sequence (Q14952 22-245 limits assumed): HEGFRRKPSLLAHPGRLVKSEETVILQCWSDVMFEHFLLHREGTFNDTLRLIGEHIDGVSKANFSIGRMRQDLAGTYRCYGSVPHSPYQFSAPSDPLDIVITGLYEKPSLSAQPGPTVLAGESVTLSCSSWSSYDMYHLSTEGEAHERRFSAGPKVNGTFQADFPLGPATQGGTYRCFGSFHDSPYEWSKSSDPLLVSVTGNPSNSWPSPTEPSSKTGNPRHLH

[9] = target: T14, KIR3DL1 (Fc, R&D system 1225-KR-050) (UniProt P43629 22-340); test: flow cytometry, tagged protein on scFv-K562 cells
T14 construct: Bought Fc-tagged protein

[10] = target: T15, KIR3DL3 (Fc, R&D system 10104-KR-050) (UniProt Q8N743 26-322, limits assumed); test: flow cytometry, tagged protein on scFv-K562 cells
T15 construct: Bought Fc-tagged protein
T15 sequence (Q8N743 26-322 limits assumed): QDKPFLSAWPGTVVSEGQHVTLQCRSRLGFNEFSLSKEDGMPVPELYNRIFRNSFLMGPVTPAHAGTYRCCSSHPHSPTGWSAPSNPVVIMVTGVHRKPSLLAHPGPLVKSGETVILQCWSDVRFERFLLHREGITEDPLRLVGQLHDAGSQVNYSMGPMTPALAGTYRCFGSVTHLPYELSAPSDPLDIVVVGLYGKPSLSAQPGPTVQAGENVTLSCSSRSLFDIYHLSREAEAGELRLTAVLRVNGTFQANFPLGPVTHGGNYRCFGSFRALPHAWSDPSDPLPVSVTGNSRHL

[11] = target: T16, NKG2A (Fc, R&D system 10511-NK-050) (UniProt P26715 94-233, limits assumed); test: flow cytometry, tagged protein on scFv-K562 cells
T16 construct: Bought Fc-tagged protein
T16 sequence (P26715 94-233 limits assumed): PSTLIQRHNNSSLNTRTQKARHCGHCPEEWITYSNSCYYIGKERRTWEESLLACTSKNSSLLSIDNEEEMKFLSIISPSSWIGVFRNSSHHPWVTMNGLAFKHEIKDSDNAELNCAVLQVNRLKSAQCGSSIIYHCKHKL

[12] = target: T17, NKG2C (Fc, R&D system 138-NK-050) (UniProt P26717 94-231, limits assumed); test: flow cytometry, tagged protein on scFv-K562 cells
T17 construct: Bought Fc-tagged protein
T17 sequence (P26717 94-231 limits assumed): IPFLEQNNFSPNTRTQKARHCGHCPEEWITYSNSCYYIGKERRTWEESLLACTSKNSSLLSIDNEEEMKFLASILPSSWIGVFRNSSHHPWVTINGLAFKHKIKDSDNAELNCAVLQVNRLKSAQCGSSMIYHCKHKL

[13] = target: T1, NKG2D (Fc, R&D system 1299-NK-050); test: flow cytometry, tagged protein on scFv-K562 cells
[14] = target: T18, NKG2E (Fc, R&D system 9759-NK-050) (UniProt Q07444 94-240, limits assumed); test: flow cytometry, tagged protein on scFv-K562 cells
T18 construct: Bought Fc-tagged protein
T18 sequence (Q07444 94-240 limits assumed): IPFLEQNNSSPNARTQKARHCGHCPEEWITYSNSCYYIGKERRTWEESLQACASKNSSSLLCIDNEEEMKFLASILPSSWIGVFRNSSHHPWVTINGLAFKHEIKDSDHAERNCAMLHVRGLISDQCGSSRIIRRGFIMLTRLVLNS

[15] = target: T2, NKp30 (Fc, R&D system 1849-NK-025); test: flow cytometry, tagged protein on scFv-K562 cells
[16] = target: T3, NKp44 (Fc, R&D system 2249-NK-050); test: flow cytometry, tagged protein on scFv-K562 cells
[17] = target: T19, NKp46 (Fc, R&D system 1850-NK-025) (UniProt O76036 22-258, limits assumed); test: flow cytometry, tagged protein on scFv-K562 cells
T19 construct: Bought Fc-tagged protein
T19 sequence (O76036 22-258 limits assumed): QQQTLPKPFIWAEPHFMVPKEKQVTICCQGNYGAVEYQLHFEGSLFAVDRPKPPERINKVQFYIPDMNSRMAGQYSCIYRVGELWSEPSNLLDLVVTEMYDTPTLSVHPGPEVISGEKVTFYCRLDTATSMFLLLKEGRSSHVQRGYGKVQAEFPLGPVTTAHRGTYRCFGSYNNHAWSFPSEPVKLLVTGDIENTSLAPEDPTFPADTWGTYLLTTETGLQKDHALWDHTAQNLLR

[18] = target: CD16a (Fc, R&D system 4325-FC-050) (UniProt P08637 17-208); test: flow cytometry, tagged protein on scFv-K562 cells
CD16a (Fc, R&D system 4325-FC-050), sequence (P08637 17-208 limits assumed): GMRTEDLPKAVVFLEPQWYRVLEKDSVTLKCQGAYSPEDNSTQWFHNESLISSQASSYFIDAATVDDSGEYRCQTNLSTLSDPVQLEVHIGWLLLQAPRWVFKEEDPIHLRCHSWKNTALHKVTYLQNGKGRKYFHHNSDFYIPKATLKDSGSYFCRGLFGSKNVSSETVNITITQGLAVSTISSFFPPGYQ

[19] = target: CD16b (Fc, R&D system 1597-FC-050) (UniProt O75015 17-200, limits assumed); test: flow cytometry, tagged protein on scFv-K562 cells
CD16b (Fc, R&D system 1597-FC-050), sequence (O75015 17-200 limits assumed): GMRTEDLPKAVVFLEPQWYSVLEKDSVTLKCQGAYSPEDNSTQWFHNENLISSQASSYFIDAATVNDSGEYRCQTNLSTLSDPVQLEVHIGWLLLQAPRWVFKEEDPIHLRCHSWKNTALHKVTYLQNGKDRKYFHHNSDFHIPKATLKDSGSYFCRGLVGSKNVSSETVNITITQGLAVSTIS

[20] = target: T4, CD32a (Fc, R&D system 1330-CD-050); test: flow cytometry, tagged protein on scFv-K562 cells
[21] = target: T5, CD32b/c (Fc, R&D system 1875-CD-050); test: flow cytometry, tagged protein on scFv-K562 cells
[22] = target: CD64 (Fc, R&D system 1257-FC-050) (UniProt P12314 16-288); test: flow cytometry, tagged protein on scFv-K562 cells
CD64 (Fc, R&D system 1257-FC-050), sequence (P12314 16-288 limits assumed): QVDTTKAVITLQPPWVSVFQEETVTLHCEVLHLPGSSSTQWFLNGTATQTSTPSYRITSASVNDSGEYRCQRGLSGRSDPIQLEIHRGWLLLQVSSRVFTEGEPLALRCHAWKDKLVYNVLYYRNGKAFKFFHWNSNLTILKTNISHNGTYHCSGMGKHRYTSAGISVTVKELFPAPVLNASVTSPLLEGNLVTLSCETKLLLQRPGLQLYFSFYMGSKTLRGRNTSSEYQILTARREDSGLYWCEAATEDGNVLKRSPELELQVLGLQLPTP

[23] = target: T20, LILRB1 (Fc, R&D system 2017-T2-050) (UniProt Q8NHL6 24-458); test: flow cytometry, tagged protein on scFv-K562 cells
T20 construct: Bought Fc-tagged protein
T20 sequence (Q8NHL6 24-458 limits assumed): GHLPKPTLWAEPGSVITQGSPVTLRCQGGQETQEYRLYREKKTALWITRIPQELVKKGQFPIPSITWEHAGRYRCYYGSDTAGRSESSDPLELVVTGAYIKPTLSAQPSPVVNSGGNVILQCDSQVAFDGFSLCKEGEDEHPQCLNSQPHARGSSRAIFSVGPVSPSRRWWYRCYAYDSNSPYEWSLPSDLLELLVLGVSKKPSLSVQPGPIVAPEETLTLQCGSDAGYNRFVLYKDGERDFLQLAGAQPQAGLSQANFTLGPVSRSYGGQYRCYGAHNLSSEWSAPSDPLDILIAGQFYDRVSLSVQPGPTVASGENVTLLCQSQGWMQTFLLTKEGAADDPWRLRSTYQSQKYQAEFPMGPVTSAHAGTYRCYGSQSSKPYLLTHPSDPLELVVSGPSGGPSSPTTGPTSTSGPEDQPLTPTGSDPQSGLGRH

[24] = target: T21, LILRB2 (His, R&D system 8429-T4-050) (UniProt Q8N423 22-458); test: flow cytometry, tagged protein on scFv-K562 cells
T21 construct: Bought His-tagged protein
T21 sequence (Q8N423 22-458 limits assumed): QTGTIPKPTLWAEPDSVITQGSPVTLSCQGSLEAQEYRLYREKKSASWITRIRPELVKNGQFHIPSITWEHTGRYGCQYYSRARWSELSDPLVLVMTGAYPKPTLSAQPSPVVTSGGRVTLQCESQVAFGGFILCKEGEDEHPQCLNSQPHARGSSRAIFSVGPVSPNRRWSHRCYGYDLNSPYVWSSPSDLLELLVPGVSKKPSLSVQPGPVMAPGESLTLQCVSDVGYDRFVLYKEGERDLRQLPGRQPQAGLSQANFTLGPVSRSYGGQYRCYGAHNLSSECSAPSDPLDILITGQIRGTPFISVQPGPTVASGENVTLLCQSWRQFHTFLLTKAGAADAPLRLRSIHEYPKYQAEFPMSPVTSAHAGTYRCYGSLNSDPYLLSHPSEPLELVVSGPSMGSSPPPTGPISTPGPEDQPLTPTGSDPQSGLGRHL

[25] = target: T6, TIGIT (Fc, R&D system 9464-TG-050); test: flow cytometry, tagged protein on scFv-K562 cells
[26] = target: T22, CD161 (Fc, R&D system 7448-CD-050) (UniProt Q12918 67-225); test: flow cytometry, tagged protein on scFv-K562 cells
T22 construct: Bought Fc-tagged protein

[27] = target: T23, recombinant KIR2DL1 (extracellular domain-Fc-Avi, in-house) (human); test: flow cytometry, KIR-Fc 0.1 µM on scFv-K562 cells
T23 construct: IL-2 signal peptide left out; also called soluble KIR2DL1
T23 sequence (chain, as listed by the source): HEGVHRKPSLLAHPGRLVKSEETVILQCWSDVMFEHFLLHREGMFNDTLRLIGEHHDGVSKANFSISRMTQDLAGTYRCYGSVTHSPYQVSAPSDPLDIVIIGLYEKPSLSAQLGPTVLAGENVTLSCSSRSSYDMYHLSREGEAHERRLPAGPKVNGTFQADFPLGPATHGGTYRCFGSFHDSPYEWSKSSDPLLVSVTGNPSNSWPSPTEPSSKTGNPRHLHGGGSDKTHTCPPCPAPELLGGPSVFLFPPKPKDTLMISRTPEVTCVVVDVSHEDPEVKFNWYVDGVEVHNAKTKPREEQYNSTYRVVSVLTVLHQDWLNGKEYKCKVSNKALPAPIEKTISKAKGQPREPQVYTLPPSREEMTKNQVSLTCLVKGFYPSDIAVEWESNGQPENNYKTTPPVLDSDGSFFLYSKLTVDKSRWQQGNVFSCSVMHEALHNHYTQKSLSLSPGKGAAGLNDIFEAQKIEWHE

Row | binding result [1] | binding result [2] | binding result [3] | binding result [4] | binding result [5] | binding result [6] | binding result [7] | binding result [8] | binding result [9] | binding result [10] | binding result [11] | binding result [12] | binding result [13] | binding result [14] | binding result [15] | binding result [16] | binding result [17] | binding result [18] | binding result [19] | binding result [20] | Binder | further results
1 | no binding (tested: 0.1 µM) | no binding (tested: 0.1 µM) | no binding (tested: 0.1 µM) | no binding (tested: 0.1 µM) | no binding (tested: 0.1 µM) | no binding (tested: 0.1 µM) | no binding (tested: 0.1 µM) | no binding (tested: 0.1 µM) | no binding (tested: 0.1 µM) | no binding (tested: 0.1 µM) | no binding (tested: 0.1 µM) | no binding (tested: 0.1 µM) | no binding (tested: 0.1 µM) | no binding (tested: 0.1 µM) | no binding (tested: 0.1 µM) | no binding (tested: 0.1 µM) | no binding (tested: 0.1 µM) | no binding (tested: 0.1 µM) | no binding (tested: 0.1 µM) | no binding (tested: 0.1 µM) | membrane-type a2DL2/3-DS4 scFv (scFv, On K562 cells) scFv: DYKDDDDKGSGEVQLVQSGAEVKKPGSSVKVSCKASGGTFSSYAISWVRQAPGQGLEWMGGIIPIFGTANYAQKFQDRVTITADKSTSTAYMELSSLRSEDTAVYYCARGSRNFDYWGQGTLVTVSSGGGGSGGGGSGGGGSAIRMTQSPSSLSASVGDRVTIPCRASQSIGSYLNWYQQKPGKAPNLLIYAASSLQSGVPSRFSGSGSGTDFTLTISSLQPEDFATYYCQQSYSTPLTFGGGTKVDIKALSNSIMYFSHFVPVFLPAKPTTTPAPRPPTPAPTIASQPLSLRPEACRPAAGGAVHTRGLDFACDIYIWAPLAGTCGVLLLSLVITLYCNH | binding result [21]: no binding (tested: 0.1 µM); binding result [22]: no binding (tested: 0.1 µM); binding result [23]: no binding (tested: 0.1 µM); binding result [24]: no binding (tested: 0.1 µM); binding result [25]: no binding (tested: 0.1 µM); binding result [26]: no binding (tested: 0.1 µM)
2 | – | – | – | – | – | – | – | – | – | – | – | – | – | – | – | – | – | – | – | – | membrane-type a2DL1-DS11 scFv (scFv, On K562 cells) scFv: DYKDDDDKGSGEVQLVQSGAEVKKPGSSVKVSCKASGGTFSSYAISWVRQAPGQGLEWMGGIIPIFGTANYAQKFQGRVTITADESTSTAYMELSSLRSEDTAVYYCARGLRFFDYWGQGTLVTVSSGGGGSGGGGSGGGGSQSVLTQPPSASGTPGQRVTISCSGSSSNIGTNTVNWYQQFPGTAPKLLIYSNNQRPSGVPDRFSGSKSGTSGSLAISGLQSEDEADYYCAAWDDSLQGWLFGGGTKLTVLALSNSIMYFSHFVPVFLPAKPTTTPAPRPPTPAPTIASQPLSLRPEACRPAAGGAVHTRGLDFACDIYIWAPLAGTCGVLLLSLVITLYCNH | binding result [27]: binds
3 | no binding (tested: 0.1 µM) | no binding (tested: 0.1 µM) | no binding (tested: 0.1 µM) | no binding (tested: 0.1 µM) | no binding (tested: 0.1 µM) | no binding (tested: 0.1 µM) | no binding (tested: 0.1 µM) | no binding (tested: 0.1 µM) | no binding (tested: 0.1 µM) | no binding (tested: 0.1 µM) | no binding (tested: 0.1 µM) | no binding (tested: 0.1 µM) | no binding (tested: 0.1 µM) | no binding (tested: 0.1 µM) | no binding (tested: 0.1 µM) | no binding (tested: 0.1 µM) | no binding (tested: 0.1 µM) | no binding (tested: 0.1 µM) | no binding (tested: 0.1 µM) | no binding (tested: 0.1 µM) | membrane-type a2DL2/3-DS10 scFv (scFv, On K562 cells; also called a2DL2/3-DS10 WT scFv) scFv: DYKDDDDKGSGQVQLVQSGAEVKKPGSSVKVSCKASGGTFSSFAISWVRQAPGQGLEWMGGIIPIFGTANYAQKFQGRVTITADESTSTAYMELSSLRSEDTAVYYCARVSGTTGGYYYGMDVWGQGTLVTVSSGGGGSGGGGSGGGGSAIRMTQSPSSVSASVGDRVTITCRASQGIGNWLAWYQQKPGRAPKLLISTASSLQSGVPSRFSGGGSGRGFTLTISSLQLEDFATYYCQQSYITPWTFGQGTKVEIKALSNSIMYFSHFVPVFLPAKPTTTPAPRPPTPAPTIASQPLSLRPEACRPAAGGAVHTRGLDFACDIYIWAPLAGTCGVLLLSLVITLYCNH | binding result [21]: no binding (tested: 0.1 µM); binding result [22]: no binding (tested: 0.1 µM); binding result [23]: no binding (tested: 0.1 µM); binding result [24]: no binding (tested: 0.1 µM); binding result [25]: no binding (tested: 0.1 µM); binding result [26]: no binding (tested: 0.1 µM)
4 | – | – | – | – | – | – | – | – | – | – | – | – | – | – | – | – | – | – | – | – | membrane-type a2DL1-DS1 scFv (scFv, On K562 cells) scFv: DYKDDDDKGSGQVQLQQSGPELVRASQTLSLTCAISGDSVSSNSATWNWIRQSPSRGLEWLGRTYYRSKWYNDYAVSVKSRITINPDTSKNQFSLQLNSVTPEDTAVYYCARDSPSYGRGVFDIWGQGTLVTVSSGGGGSGGGGSGGGGSDIVMTQSPDSLAVSLGERATINCKSSQSVLYSSNNKNYLAWYQQKPGQPPKLLIYWASTRESGVPDRFSGSGSGTDFTLTISSLQAEDVAVYYCQQYYSPPYTFGQGTKLEIKALSNSIMYFSHFVPVFLPAKPTTTPAPRPPTPAPTIASQPLSLRPEACRPAAGGAVHTRGLDFACDIYIWAPLAGTCGVLLLSLVITLYCNH | binding result [27]: binds
